Experimental findings from article doi:10.1101/2023.02.23.529715 (bioRxiv, 2023) are described below.

The target in data set [1] is GFP-HilD (Salmonella enterica) (UniProt P0CL08). As to the kind of experiment: MST.
For data set [2] the target is unchanged. Description: MST. The source holds these as a separate data set.
Data set [3] concerns the target HilD N-terminal domain (HilD NTD, residues 7-206) (Salmonella enterica) (UniProt P0CL08). Description: SEC-MALS. Background: In gel filtration, larger molecules generally elute earlier.
Data set [4] has as its target HilD (full length, unfused) (Salmonella enterica) (UniProt P0CL08). As to the kind of experiment: SEC-MALS.
The data set “SEC-MALS” deals with the molecule itself. As to the kind of experiment: SEC-MALS.
The target in data set [5] is T1, GFP-HilD (Salmonella enterica, UniProt P0CL08 1-309).
T1 sequence (looked up): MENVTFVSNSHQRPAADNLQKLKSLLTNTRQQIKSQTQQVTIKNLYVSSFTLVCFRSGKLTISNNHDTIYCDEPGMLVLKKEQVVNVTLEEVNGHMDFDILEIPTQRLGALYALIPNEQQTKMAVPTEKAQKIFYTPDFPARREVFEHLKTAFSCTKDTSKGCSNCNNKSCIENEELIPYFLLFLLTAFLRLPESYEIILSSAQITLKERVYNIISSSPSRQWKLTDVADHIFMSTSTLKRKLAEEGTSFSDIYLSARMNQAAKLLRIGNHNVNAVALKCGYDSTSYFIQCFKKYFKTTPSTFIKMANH
Description: MST.

Data set [6] addresses T1, GFP-HilD. As to the kind of experiment: MST. This is another data set of the same source.

Like-named read-outs stand apart in the source and are kept apart here.

One may read the Kd as the constant that tells how readily two partners part at equilibrium. Lower therefore signals a tighter complex. Broadly, the stoichiometry N is the number of molecules, sites or subunits per partner or assembly.

For the molecule HilE (natural protein), the results for the dissociation constant Kd in data set [1] and in data set [2] were 1700 nM and 1680 nM, respectively. Also, in data set [3], the stoichiometry N (HilE per HilD NTD) is 1. Moreover, in data set [4], the stoichiometry N (HilE per HilD) came out at 1.

B1: HilD N-terminal domain (HilD NTD, residues 7-206) (domain or fragment, Salmonella enterica, UniProt P0CL08 7-206, looked up)
chain: VSNSHQRPAADNLQKLKSLLTNTRQQIKSQTQQVTIKNLYVSSFTLVCFRSGKLTISNNHDTIYCDEPGMLVLKKEQVVNVTLEEVNGHMDFDILEIPTQRLGALYALIPNEQQTKMAVPTEKAQKIFYTPDFPARREVFEHLKTAFSCTKDTSKGCSNCNNKSCIENEELIPYFLLFLLTAFLRLPESYEIILSSAQIT
Regarding B1, in “SEC-MALS”, the “stoichiometry N” value was 2.

B2: HilD (full length, unfused) (natural protein, Salmonella enterica, UniProt P0CL08 1-309, looked up)
chain: MENVTFVSNSHQRPAADNLQKLKSLLTNTRQQIKSQTQQVTIKNLYVSSFTLVCFRSGKLTISNNHDTIYCDEPGMLVLKKEQVVNVTLEEVNGHMDFDILEIPTQRLGALYALIPNEQQTKMAVPTEKAQKIFYTPDFPARREVFEHLKTAFSCTKDTSKGCSNCNNKSCIENEELIPYFLLFLLTAFLRLPESYEIILSSAQITLKERVYNIISSSPSRQWKLTDVADHIFMSTSTLKRKLAEEGTSFSDIYLSARMNQAAKLLRIGNHNVNAVALKCGYDSTSYFIQCFKKYFKTTPSTFIKMANH
Turning to B2, the dissociation constant (Kd) with GFP-HilD [5] stood at 3.39 ± 0.77 µM; with GFP-HilD [6] it was 4.52 ± 0.5 µM. In addition, the “stoichiometry N” value in “SEC-MALS” worked out at 2.
